Substitutions are numbered along the chain they refer to.
B1: 370_A03 (antibody, V domains shown)
VH: EVQLLESGGGLVQPGGSLRLSCAASGFTFSSYSMNWVRQAPGKGLEWVSNINYNGGYTSYADSVKGRFTISRDNSKNTLYLQMNSLRAEDTAVYYCARSANWHDTALDYWGQGTLVTVSS
VL: DIQMTQSPSSLSASVGDRVTITCRASQSILSYLNWYQQKPGKAPKLLIYAATSRASGVPSRFSGSGSGTDFTLTISSLQPEDFATYYCQQSYDSPLTFGGGTKVEIK
B2: 367_C01 (antibody, V domains shown)
VH: B1 VH with S30D, S31D, N50G, T58K, A106H
VL: B1 VL with S31T, L47V, A51T, R54L, A55H, S94T
B3: 367_C05 (antibody, V domains shown)
VH: B1 VH with S30D, S31D, S33G, N50S, S59G, A106H
VL: B1 VL with L33V, L47V, A55H, S94L
B4: 367_C11 (antibody, V domains shown)
VH: B1 VH with S30D, N50S, G55S, S59G, A106H
VL: B1 VL with L47V, A55H, D93N, S94T
B5: 367_D10 (antibody, V domains shown)
VH: B1 VH with S30D, S33G
VL: B1 VL with L30I, L47V, S94T
B6: 367_E01 (antibody, V domains shown)
VH: B1 VH with S33G, S49A, N50G, T58K
VL: B1 VL with L33V, A51T, S94L
B7: 367_E04 (antibody, V domains shown)
VH: B1 VH with S31D, N50S, T58K, S59G, A106H
VL: B1 VL with D93E
B8: 367_E06 (antibody, V domains shown)
VH: B1 VH with S30D, N50S, G55S, T58K, S59G, A106H
VL: not shown
B9: 367_E09 (antibody, V domains shown)
VH: B1 VH with S31D, S33G, S49A, N50S, G55S, T58K, S59G
VL: B1 VL with L47V, A51T, D93E, S94T
B10: 367_E11 (antibody, V domains shown)
VH: B1 VH with S30D, S33G, N50S, G55S, T58K, S59G, A106H
VL: B1 VL with L30V, L33V, L47V, A55H, S94T
B11: 367_F03 (antibody, V domains shown)
VH: B1 VH with S49A, N50G, G55S, T58K
VL: B1 VL with L33V, L47V, R54L, Y92D, S94T
B12: 367_F07 (antibody, V domains shown)
VH: B1 VH with S30D, S33G, N35H, S49A, S59G
VL: B1 VL with L30I, L33V, D93E, S94T
B13: 367_F11 (antibody, V domains shown)
VH: B1 VH with S49A, N50G, G55S, S59G, A106H
VL: not shown
B14: 367_G05 (antibody, V domains shown)
VH: B1 VH with S31D, S33G, S49A
VL: B1 VL with L30V, L47V, R54L, S94T
B15: 367_G06 (antibody, V domains shown)
VH: B1 VH with S33G, N50G, G55S, T58K, A106H
VL: B1 VL with S31T, L33V, A51T, R54L, A55H, S94T
B16: 367_G10 (antibody, V domains shown)
VH: B1 VH with S30D, S31D, S33G, N50G
VL: B1 VL with L30I, L33V
B17: 367_H06 (antibody, V domains shown)
VH: B1 VH with S33G, S59G, A106H
VL: B1 VL with L30I, S31T, S94T
B18: 367_H11 (antibody, V domains shown)
VH: B1 VH with S33G, S49A, N50G, T58K, S59G
VL: B1 VL with L30I, L33V, L47V, D93N
B19: 368_A01 (antibody, V domains shown)
VH: B1 VH with S33G
VL: B1 VL with L30I, A55H, S94N
B20: 368_A05 (antibody, V domains shown)
VH: B1 VH with S49A, N50G, G55S, S59G
VL: B1 VL with L30V, L47V
B21: 368_A07 (antibody, V domains shown)
VH: B1 VH with S49A, N50G, G55S, A106H
VL: B1 VL with S31T, L47V, A51T, Y92N, D93E, S94L
B22: 368_A09 (antibody, V domains shown)
VH: B1 VH with S30D, N50G, A106H
VL: B1 VL with L33V, A51V
B23: 368_B01 (antibody, V domains shown)
VH: B1 VH with S33G, N50G, G55S, T58K
VL: B1 VL with L30S, D93E, S94T
B24: 368_B06 (antibody, V domains shown)
VH: B1 VH with S30D, S33G, N35H, N50G, G55S
VL: not shown
B25: 368_B07 (antibody, V domains shown)
VH: B1 VH with S31D, T58K
VL: B1 VL with L30V, R54L, D93S
B26: 368_C05 (antibody, V domains shown)
VH: B1 VH with S30D, S33G, N50G, G55S
VL: B1 VL with L47V, Y92D, D93S, S94N
B27: 368_D01 (antibody, V domains shown)
VH: B1 VH with S33G, N35H, S49A
VL: B1 VL with L47V, Y92D, D93S, S94T
B28: 368_D04 (antibody, V domains shown)
VH: B1 VH with S33G, N50G, T58K
VL: B1 VL with L30S, S31T, L33V, L47V, A51V, A55H
B29: 368_D05 (antibody, V domains shown)
VH: B1 VH with N50G
VL: B1 VL with S31T, L47V, Y92D
B30: 368_D11 (antibody, V domains shown)
VH: B1 VH with S30D, S31D, S33G, T58K
VL: B1 VL with S31T, L47V, S94L
B31: 368_E01 (antibody, V domains shown)
VH: B1 VH with S49A, N50S, G55S, S59G, A106H
VL: B1 VL with A51V, A55H, D93S, S94L
B32: 368_E02 (antibody, V domains shown)
VH: B1 VH with S30D, S49A, N50G, G55S, A106H
VL: B1 VL with S31T, D93S
B33: 368_E04 (antibody, V domains shown)
VH: B1 VH with S49A, G55S, S59G
VL: B1 VL with L33V, A55H, S94N
B34: 366_B05 (antibody, V domains shown)
VH: B1 VH with S31D, N50G, G55S, T58K, S99G
VL: B1 VL with L30S, L47V, A51V, D93E, S94L
notes: Group III

These binders were tested against T1, Human ACVR2A (human, UniProt P27037 20-135, limits assumed) (assay: ELISA).
T1 construct: also called activin receptor, type II A
T1 sequence (P27037 20-135 limits assumed): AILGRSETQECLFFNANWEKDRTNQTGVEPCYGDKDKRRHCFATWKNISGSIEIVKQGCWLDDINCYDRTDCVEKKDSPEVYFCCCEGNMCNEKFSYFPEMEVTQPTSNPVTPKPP
How it was run: (§1)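 Binding signal was read by ELISA after ACVR2A-specific monoclonal antibodies were tested against human ACVR2A and mouse ACVR2A, with human Fc as the negative control.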
Also: test concentration or dose not given here.

optical density | Binder
3.54 OD | B1
2.62 OD | B2
2.21 OD | B3
2.33 OD | B4
2.7 OD | B5
2.55 OD | B6
2.41 OD | B7
2.02 OD | B8
1.66 OD | B9
2.4 OD | B10
2.1 OD | B11
2.13 OD | B12
1.71 OD | B13
2.41 OD | B14
2.64 OD | B15
2.12 OD | B16
2.69 OD | B17

optical density | Binder
2.37 OD | B18
2.99 OD | B19
2.71 OD | B20
2.11 OD | B21
2.51 OD | B22
2.61 OD | B23
2.06 OD | B24
1.91 OD | B25
1.82 OD | B26
2.75 OD | B27
2.46 OD | B28
2.86 OD | B29
2.8 OD | B30
2.57 OD | B31
2.5 OD | B32
3.08 OD | B33

Each binder was assayed against mouse ACVR2A (mouse, UniProt P27038 20-135, limits assumed) (assay: ELISA).
Chain of mouse ACVR2A (P27038 20-135 limits assumed): as the sequence (P27037 20-135 limits assumed) above, with K20R, V73I counted along it
How it was run: as §1

optical density | Binder
2.46 OD | B34

These binders were tested against T2, human ACVR2A (human, UniProt P27037 20-135, limits assumed) (assay: ELISA).
T2 construct: also called activin receptor, type II A
T2 sequence (P27037 20-135 limits assumed): as the sequence (P27037 20-135 limits assumed) above
How it was run: as §1

optical density | Binder
2.38 OD | B34

What follows are binders tested against Mouse ACVR2A (mouse, UniProt P27038 20-135, limits assumed) (assay: ELISA).
Chain of Mouse ACVR2A (P27038 20-135 limits assumed): as the sequence (P27037 20-135 limits assumed) above, with K20R, V73I counted along it
How it was run: as §1

optical density | Binder
3.63 OD | B1
2.99 OD | B2
2.86 OD | B3
2.54 OD | B4
2.67 OD | B5
2.52 OD | B6
2.57 OD | B7
2.31 OD | B8
1.81 OD | B9
2.91 OD | B10
2.39 OD | B11
2.25 OD | B12
1.87 OD | B13
2.71 OD | B14
2.81 OD | B15
2.32 OD | B16
3.08 OD | B17

optical density | Binder
2.69 OD | B18
2.9 OD | B19
2.7 OD | B20
2.31 OD | B21
2.63 OD | B22
2.59 OD | B23
2.34 OD | B24
2.06 OD | B25
2.02 OD | B26
2.97 OD | B27
2.7 OD | B28
2.87 OD | B29
2.96 OD | B30
2.85 OD | B31
2.79 OD | B32
3.23 OD | B33

What follows are binders tested against T3, biotinylated goat anti-human kappa light chain (assay: ELISA, positive control).
T3 construct: positive control of the ELISA
How it was run: as §1

optical density | Binder
2.96 OD | B34

These binders were tested against T4, Goat anti-Human Kappa (assay: ELISA, positive control).
T4 construct: Positive control of the ELISA; also called biotinylated goat anti-human kappa light chain
How it was run: as §1

optical density | Binder
3.56 OD | B1
3.71 OD | B2
3.42 OD | B3
3.45 OD | B4
3.38 OD | B5
3.61 OD | B6
3.5 OD | B7
3.48 OD | B8
3.33 OD | B9
3.61 OD | B10
3.45 OD | B11
3.26 OD | B12
3.48 OD | B13
3.37 OD | B14
3.35 OD | B15
3.45 OD | B16
3.65 OD | B17

optical density | Binder
3.61 OD | B18
3.68 OD | B19
3.46 OD | B20
3.65 OD | B21
3.55 OD | B22
3.71 OD | B23
3.16 OD | B24
3.13 OD | B25
3.36 OD | B26
3.65 OD | B27
3.67 OD | B28
3.38 OD | B29
3.49 OD | B30
3.74 OD | B31
3.68 OD | B32
3.48 OD | B33
